Experimental data as given in the Human Domainome abundance scans (Beltran et al. 2025).

B1: V(D)J recombination-activating protein 2, residues 415 to 491; numbered along this chain, P55895 (parent)
chain: YWITCCPTCDVDINTWVPFYSTELNKPAMIYCSHGDGHWVHAQCMDLAERTLIHLSAGSNKYYCNEHVEIARALHTP

Variants of: B1
Test: abundance fitness (aPCA) (normalised: wild type 0, dead -1); higher = more abundant; growth selection in yeast, the domain comes from the species named
Conditions: Homo sapiens

Abundance fitness, by site and new letter:
N14: A -0.509, D 0.385, K -0.004, M -0.01, P -0.346, Q -0.332, R -0.137, S -0.419, T 0.039, V -0.149
T15: A -0.341, F 0.052, G 0.055, H 0.03, I -0.104, M -0.011, R -0.474, V 0.015
W16: C -0.553, E -0.894, F -0.725, G -0.565, I -0.12, L -0.346, P -0.471, Q -0.916, R -0.35, T -0.144
V17: E 0.046, F 0.109, I -0.153, L -0.056, M -0.105, N -0.687, P -0.375, Q 0.074, R -0.022, S -0.01, W -0.117
P18: A -0.028, E -0.28, G -0.36, H -0.175, I -0.892, L -0.038, M -0.579, N -0.453, Q -0.425, R -0.381, S -0.344
F19: A -0.305, C -0.186, D 0.099, E -0.179, G -0.142, K -0.116, M -0.029, N 0.191, P -0.509, R -0.145, S -0.154, W 0.043, Y 0.08
Y20: A -0.539, D -0.525, E -0.576, G -0.28, M -0.383, N -0.09, P -0.378, S -0.513, V -0.719
S21: A -0.187, C 0.015, D -0.17, E 0.119, F -0.154, G -0.108, H 0.086, M -0.321, P -0.004, Q -0.325, R -0.111, T -0.321, V -0.28, W -0.443, Y -0.027
T22: A -0.157, C -0.131, D -0.121, F -0.181, G -0.353, H 0.216, K 0.052, L -0.179, M 0.389, P -0.281, R -0.23, S 0.096, V -0.062, W -0.121
E23: C -0.851, D 0.122, F -0.901, G -0.372, H -0.635, K -0.54, R -1.03, S -0.805
L24: A -0.164, C 0.027, E 0.296, F -0.362, I -0.156, M -0.319, P -0.56, Q -0.1, S -0.153, T -0.081, V -0.083, W -0.305, Y -0.337
N25: A -0.124, C -0.309, D -0.297, E 0.167, G 0.01, H 0.113, L 0.073, M -0.254, Q 0.132, R -0.052, S -0.042, T -0.05, V 0.065, W -0.024, Y -0.344
K26: A -0.275, E -0.129, F -0.116, G -0.17, L -0.063, M -0.597, N -0.03, P -0.786, Q -0.179, R -0.006, S -0.174, T -0.074, V -0.084, W 0.023, Y -0.421
P27: A -0.776, C -0.938, D -1.01, F -0.515, G -1.09, H -0.741, L -0.861, Q -0.79, R -0.973, S -0.958, V -0.668
A28: C -0.117, D -0.318, E -0.172, F -0.183, G -0.775, H -0.23, K -0.112, L -0.094, M -0.213, N 0.078, P -0.334, Q -0.104, R -0.214, S -0.035, T -0.218, V -0.155, W -0.116, Y 0.009
M29: A -0.575, C -0.532, E -0.421, G -0.377, I -0.234, L 0.072, R 0.055, S 0.208
I30: G -0.644, K 0.147, L 0.122, M -0.219, R -0.322
Y31: A -0.193, C -0.039, D -0.28, E -0.018, F -0.061, G -0.337, H -0.061, I -0.649, K 0.041, L 0.005, M 0.004, N -0.322, P -0.245, R -0.04, S -0.188, T -0.197, V -0.241, W -0.193
C32: A -1.15, D -1.14, F -0.946, G -1.17, H -0.804, K -1.09, L -0.999, N -0.85, P -0.887, R -0.967, S -0.683, T -0.99, V -0.746, W -0.861, Y -0.888
S33: A 0.069, C -0.057, D 0.035, E 0.036, F -0.017, G -0.065, H -0.116, I -0.031, K -0.132, L -0.095, M -0.106, N -0.06, P -0.126, Q -0.091, R -0.147, V -0.157, W -0.072
H34: A -0.035, C -0.309, D -0.095, E -0.085, F -0.301, G -0.007, K -0.211, L -0.073, M -0.046, N -0.089, P -0.808, Q 0.051, R -0.119, S -0.032, T -0.234, V -0.132, Y -0.101
G35: A -0.164, E 0.068, I -0.07, K 0.042, L -0.042, N 0.137, Q -0.17, R -0.374, S -0.136, V -0.175, W -0.291
D36: A -0.177, C -0.092, F -0.217, G -0.04, H -0.214, K -0.441, M -0.107, N -0.211, P -0.011, Q 0.055, R -0.246, S -0.149, T -0.62, Y -0.32
G37: E -0.778, K -0.785, P 0.076, S -0.839
H38: A -0.986, N -0.689, V -0.776, Y -0.543
W39: D -0.536, E -0.148, F -0.105, G -0.54, H -0.144, I -0.278, K -0.23, L -0.097, M -0.072, N -0.274, P -0.294, Q -0.176, R -0.185, S -0.209, T -0.197, V -0.193, Y 0.014
V40: A -0.288, C -0.206, D -0.555, F -0.852, G -0.744, I -0.081, K -0.316, L -0.043, M -0.092, N -0.633, Q -0.626, R -0.65, S -0.456, T -0.427, W -1.16, Y -0.85
H41: D -0.785, R -0.755, Y -0.771
A42: C -0.118, D -0.762, E -0.883, G -0.115
